# Square brackets hold non-standard residues; d marks the D form. Ends that are not written are not given here.
# T1: Fol-hshta-Gly-Phe-Lys(AO) (compound #3303) (not fully specified)
# T1 chain: HSHTAGFK
# T2: Fol-hshta-Lys(4-MPBA)-Gly-Phe-Lys(AO) (compound #3304)
# T2 chain: HSHTAKGFK
# T3: Fol-hshta-Lys(4-MPBA)-Gly-Phe-Lys(PEG3-DOTA) (compound #3302) (not fully specified)
# T3 chain: HSHTAKGFK
# T4: Fol-hshta-PEG3-Gly-Phe-Lys(DOTA) (compound #6307)
# T4 chain: HSHTAGFK
# T5: Fol-hshta-PEG3-Lys(DOTA) (compound #1189) (not fully specified)
# T5 chain: HSHTAK
# T6: Folate-hshta-G-F-K(DOTA)-OH (Indi 7327, compound #7327) (not fully specified)
# T6 chain: HSHTAGFK
# T7: Folate-hshta-Lys(IPBA)-Gly-Phe-Lys(DOTA) (compound #1307) (not fully specified)
# T7 chain: HSHTAKGFK
# T8: Folate-hshta-Lys(IPBA)-M-V-Lys(DOTA) (compound #1306) (not fully specified)
# T8 chain: HSHTAKMVK
# T9: Folate-hshta-Lys(MPBA)-Gly-Phe-Lys(DOTA) (compound #6305) (not fully specified)
# T9 chain: HSHTAKGFK
# T10: Folate-hshta-PEG3-Lys(MPBA)-Lys(DOTA) (compound #2809) (not fully specified)
# T10 chain: HSHTAKK
# B1: human recombinant neprilysin (NEP) (protein)
# chain: YDDGICKSSDCIKSAARLIQNMDATTEPCTDFFKYACGGWLKRNVIPETSSRYGNFDILRDELEVVLKDVLQEPKTEDIVAVQKAKALYRSCINESAIDSRGGEPLLKLLPDIYGWPVATENWEQKYGASWTAEKAIAQLNSKYGKKVLINLFVGTDDKNSVNHVIHIDQPRLGLPSRDYYECTGIYKEACTAYVDFMISVARLIRQEERLPIDENQLALEMNKVMELEKEIANATAKPEDRNDPMLLYNKMTLAQIQNNFSLEINGKPFSWLNFTNEIMSTVNISITNEEDVVVYAPEYLTKLKPILTKYSARDLQNLMSWRFIMDLVSSLSRTYKESRNAFRKALYGTTSETATWRRCANYVNGNMENAVGRLYVEAAFAGESKHVVEDLIAQIREVFIQTLDDLTWMDAETKKRAEEKALAIKERIGYPDDIVSNDNKLNNEYLELNYKEDEYFENIIQNLKFSQSKQLKKLREKVDKDEWISGAAVVNAFYSSGRNQIVFPAGILQPPFFSAQQSNSLNYGGIGMVIGHEITHGFDDNGRNFNKDGDLVDWWTQQSASNFKEQSQCMVYQYGNFSWDLAGGQHLNGINTLGENIADNGGLGQAYRAYQNYIKKNGEEKLLPGLDLNHKQLFFLNFAQVWCGTYRPEYAVNSIKTDVHSPGNFRIIGTLQNSAEFSEAFHCRKNSYMNPEKKCRVW
# B2: DyLight650-labeled folate-hshta Nterm heterobiligand (peptide)
# peptide: folate-[dH][dS][dH][dT][dA]
# modifications: also: triazole macrocycle via Pra and Az4, places not given here, DyLight 650 label, site not given here
# Legend:
# human plasma proteins = experiment: plasma protein binding, dialysis 4 h at 37 C, 2 µM, LC-MS/MS; control
# [1] = biological target: mouse plasma proteins (CD-1 mouse); experiment: as above
# [2] = biological target: T1, Fol-hshta-Gly-Phe-Lys(AO) (compound …)
# [3] = biological target: T2, Fol-hshta-Lys(4-MPBA)-Gly-Phe-Lys(AO) …
# [4] = biological target: T3, Fol-hshta-Lys(4-MPBA)-Gly-Phe-Lys(PEG3-D …)
# [5] = biological target: T4, Fol-hshta-PEG3-Gly-Phe-Lys(DOTA) …
# [6] = biological target: T5, Fol-hshta-PEG3-Lys(DOTA) (compound …)
# [7] = biological target: T6, Folate-hshta-G-F-K(DOTA)-OH (Indi 7327, …)
# [8] = biological target: T7, Folate-hshta-Lys(IPBA)-Gly-Phe-Lys(DOTA) …
# [9] = biological target: T8, Folate-hshta-Lys(IPBA)-M-V-Lys(DOTA) …
# [10] = biological target: T9, Folate-hshta-Lys(MPBA)-Gly-Phe-Lys(DOTA) …
# [11] = biological target: T10, Folate-hshta-PEG3-Lys(MPBA)-Lys(DOTA) …
# [12] = biological target: Human FOLR1 on OVCAR3 cells (human) (UniProt P15328); experiment: flow cytometry on OVCAR3 cells after 1 h at 37 C, before acid wash
# Chain of Human FOLR1 on OVCAR3 cells (human) (P15328 25-234 limits assumed): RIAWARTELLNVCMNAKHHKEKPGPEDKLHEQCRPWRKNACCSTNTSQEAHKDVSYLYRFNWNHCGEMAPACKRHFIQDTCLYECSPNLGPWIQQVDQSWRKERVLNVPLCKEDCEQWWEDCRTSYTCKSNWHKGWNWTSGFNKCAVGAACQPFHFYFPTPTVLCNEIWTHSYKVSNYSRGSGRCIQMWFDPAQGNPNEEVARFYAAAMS
# [13] = biological target: Human FOLR1 on OVCAR3 cells (human) (UniProt P15328); experiment: flow cytometry on OVCAR3 cells after 1 h at 37 C, after acid wash (internalized fraction)
molecule,measurement,setting,value
Octreotide Acetate (peptide),Plasma % Bound,human plasma proteins,59.4%
same,Plasma % Bound,[1],62.4%
B1,NEP cleavage (in vitro Assay Data),[2],Cleavage of -G-F-K- linker was confirmed in NEP assay.
same,NEP cleavage (in vitro Assay Data),[3],Cleavage of -G-F-K- linker was confirmed in NEP assay.
same,NEP cleavage (in vitro Assay Data),[4],Cleavage of -G-F-K- linker was confirmed in NEP assay.
same,NEP cleavage (in vitro Assay Data),[5],Cleavage of -G-F-K- linker was confirmed in NEP assay.
same,NEP cleavage (in vitro Assay Data),[6],Confirmed to be resistant to NEP cleavage.
same,NEP cleavage (in vitro Assay Data),[7],Cleavage of -G-F-K- linker was confirmed in NEP assay.
same,"NEP-mediated cleavage, NEP titration (10.0 to 0 nM), 37 C 1 h, MALDI-MS",[7],"At 10 nM NEP, no intact Indi 7327 remains indicating complete consumption of the peptide. At 1.0 and 0.1 nM NEP, partial cleavage was observed. Below 0.1 nM NEP, no cleavage was observed."
same,NEP cleavage (in vitro Assay Data),[8],Cleavage of -G-F-K- linker was confirmed in NEP assay.
same,"NEP-mediated cleavage, MALDI-TOF MS",[8],"At 1 nM NEP, substantial (and in the case of GFK complete) cleavage of the test article was observed by MALDI-TOF MS."
same,NEP cleavage (in vitro Assay Data),[9],Cleavage of -M-V-K- linker was confirmed in NEP assay.
same,"NEP-mediated cleavage, MALDI-TOF MS",[9],"At 1 nM NEP, substantial (and in the case of GFK complete) cleavage of the test article was observed by MALDI-TOF MS."
same,NEP cleavage (in vitro Assay Data),[10],Cleavage of -G-F-K- linker was confirmed in NEP assay.
same,"NEP-mediated cleavage, NEP titration, MALDI (10 uM PCC)",[10],"At 10 nM NEP, complete consumption of the starting peptide was observed. At 1 nM and 0.1 nM NEP, partial cleavage was observed. Below 0.1 nM no cleavage was observed."
same,NEP cleavage (in vitro Assay Data),[11],Confirmed to be resistant to NEP cleavage.
B2,percentage of positively stained cells,[12],73.4%
same,percentage of positively stained cells,[13],54.2%
